Patent US20250339531A1, “DUX4 POLYPEPTIDES AND NUCLEIC ACIDS FOR TREATING INFLAMMATORY AND AUTOIMMUNE CONDITIONS” (Fred Hutchinson Cancer Center, priority 2021, published 2025)

B1: Q63ZY3 (protein, UniProt Q63ZY3 1-851, looked up)
chain: MAQVLHVPAPFPGTPGPASPPAFPAKDPDPPYSVETPYGYRLDLDFLKYVDDIEKGHTLRRVAVQRRPRLSSLPRGPGSWWTSTESLCSNASGDSRHSAYSYCGRGFYPQYGALETRGGFNPRVERTLLDARRRLEDQAATPTGLGSLTPSAAGSTASLVGVGLPPPTPRSSGLSTPVPPSAGHLAHVREQMAGALRKLRQLEEQVKLIPVLQVKLSVLQEEKRQLTVQLKSQKFLGHPTAGRGRSELCLDLPDPPEDPVALETRSVGTWVRERDLGMPDGEAALAAKVAVLETQLKKALQELQAAQARQADPQPQAWPPPDSPVRVDTVRVVEGPREVEVVASTAAGAPAQRAQSLEPYGTGLRALAMPGRPESPPVFRSQEVVETMCPVPAAATSNVHMVKKISITERSCDGAAGLPEVPAESSSSPPGSEVASLTQPEKSTGRVPTQEPTHREPTRQAASQESEEAGGTGGPPAGVRSIMKRKEEVADPTAHRRSLQFVGVNGGYESSSEDSSTAENISDNDSTENEAPEPRERVPSVAEAPQLRPAGTAAAKTSRQECQLSRESQHIPTAEGASGSNTEEEIRMELSPDLISACLALEKYLDNPNALTERELKVAYTTVLQEWLRLACRSDAHPELVRRHLVTFRAMSARLLDYVVNIADSNGNTALHYSVSHANFPVVQQLLDSGVCKVDKQNRAGYSPIMLTALATLKTQDDIETVLQLFRLGNINAKASQAGQTALMLAVSHGRVDVVKALLACEADVNVQDDDGSTALMCACEHGHKEIAGLLLAVPSCDISLTDRDGSTALMVALDAGQSEIASMLYSRMNIKCSFAPMSDDESPTSSSAEE
modifications: full-length
B2: Q13263 (protein, UniProt Q13263 1-835, looked up)
chain: MAASAAAASAAAASAASGSPGPGEGSAGGEKRSTAPSAAASASASAAASSPAGGGAEALELLEHCGVCRERLRPEREPRLLPCLHSACSACLGPAAPAAANSSGDGGAAGDGTVVDCPVCKQQCFSKDIVENYFMRDSGSKAATDAQDANQCCTSCEDNAPATSYCVECSEPLCETCVEAHQRVKYTKDHTVRSTGPAKSRDGERTVYCNVHKHEPLVLFCESCDTLTCRDCQLNAHKDHQYQFLEDAVRNQRKLLASLVKRLGDKHATLQKSTKEVRSSIRQVSDVQKRVQVDVKMAILQIMKELNKRGRVLVNDAQKVTEGQQERLERQHWTMTKIQKHQEHILRFASWALESDNNTALLLSKKLIYFQLHRALKMIVDPVEPHGEMKFQWDLNAWTKSAEAFGKIVAERPGTNSTGPAPMAPPRAPGPLSKQGSGSSQPMEVQEGYGFGSGDDPYSSAEPHVSGVKRSRSGEGEVSGLMRKVPRVSLERLDLDLTADSQPPVFKVFPGSTTEDYNLIVIERGAAAAATGQPGTAPAGTPGAPPLAGMAIVKEEETEAAIGAPPTATEGPETKPVLMALAEGPGAEGPRLASPSGSTSSGLEVVAPEGTSAPGGGPGTLDDSATICRVCQKPGDLVMCNQCEFCFHLDCHLPALQDVPGEEWSCSLCHVLPDLKEEDGSLSLDGADSTGVVAKLSPANQRKCERVLLALFCHEPCRPLHQLATDSTFSLDQPGGTLDLTLIRARLQEKLSPPYSSPQEFAQDVGRMFKQFNKLTEDKADVQSIIGLQRFFETRMNEAFGDTKFSAVLVEPPPMSLPGAGLSSQELSGGPGDGP
modifications: full-length
B3: P52597 (protein, UniProt P52597 1-415, looked up)
chain: MMLGPEGGEGFVVKLRGLPWSCSVEDVQNFLSDCTIHDGAAGVHFIYTREGRQSGEAFVELGSEDDVKMALKKDRESMGHRYIEVFKSHRTEMDWVLKHSGPNSADSANDGFVRLRGLPFGCTKEEIVQFFSGLEIVPNGITLPVDPEGKITGEAFVQFASQELAEKALGKHKERIGHRYIEVFKSSQEEVRSYSDPPLKFMSVQRPGPYDRPGTARRYIGIVKQAGLERMRPGAYSTGYGGYEEYSGLSDGYGFTTDLFGRDLSYCLSGMYDHRYGDSEFTVQSTTGHCVHMRGLPYKATENDIYNFFSPLNPVRVHIEIGPDGRVTGEADVEFATHEEAVAAMSKDRANMQHRYIELFLNSTTGASNGAYSSQVMQGMGVSAAQATYSGLESQSVSGCYGAGYSGQNSMGGYD
modifications: full-length
B4: O94919 (protein, UniProt O94919 1-500, looked up)
chain: MGTARWLALGSLFALAGLLEGRLVGEEEAGFGECDKFFYAGTPPAGLAADSHVKICQRAEGAERFATLYSTRDRIPVYSAFRAPRPAPGGAEQRWLVEPQIDDPNSNLEEAINEAEAITSVNSLGSKQALNTDYLDSDYQRGQLYPFSLSSDVQVATFTLTNSAPMTQSFQERWYVNLHSLMDRALTPQCGSGEDLYILTGTVPSDYRVKDKVAVPEFVWLAACCAVPGGGWAMGFVKHTRDSDIIEDVMVKDLQKLLPFNPQLFQNNCGETEQDTEKMKKILEVVNQIQDEERMVQSQKSSSPLSSTRSKRSTLLPPEASEGSSSFLGKLMGFIATPFIKLFQLIYYLVVAILKNIVYFLWCVTKQVINGIESCLYRLGSATISYFMAIGEELVSIPWKVLKVVAKVIRALLRILCCLLKAICRVLSIPVRVLVDVATFPVYTMGAIPIVCKDIALGLGGTVSLLFDTAFGTLGGLFQVVFSVCKRIGYKVTFDNSGEL
modifications: full-length
B5: Q15233 (protein, UniProt Q15233 1-471, looked up)
chain: MQSNKTFNLEKQNHTPRKHHQHHHQQQHHQQQQQQPPPPPIPANGQQASSQNEGLTIDLKNFRKPGEKTFTQRSRLFVGNLPPDITEEEMRKLFEKYGKAGEVFIHKDKGFGFIRLETRTLAEIAKVELDNMPLRGKQLRVRFACHSASLTVRNLPQYVSNELLEEAFSVFGQVERAVVIVDDRGRPSGKGIVEFSGKPAARKALDRCSEGSFLLTTFPRPVTVEPMDQLDDEEGLPEKLVIKNQQFHKEREQPPRFAQPGSFEYEYAMRWKALIEMEKQQQDQVDRNIKEAREKLEMEMEAARHEHQVMLMRQDLMRRQEELRRMEELHNQEVQKRKQLELRQEEERRRREEEMRRQQEEMMRRQQEGFKGTFPDAREQEIRMGQMAMGGAMGINNRGAMPPAPVPAGTPAPPGPATMMPDGTLGLTPPTTERFGQAATMEGIGAIGGTPPAFNRAAPGAEFAPNKRRRY
modifications: full-length
B6: Q8NC51 (protein, UniProt Q8NC51 1-408, looked up)
chain: MPGHLQEGFGCVVTNRFDQLFDDESDPFEVLKAAENKKKEAGGGGVGGPGAKSAAQAAAQTNSNAAGKQLRKESQKDRKNPLPPSVGVVDKKEETQPPVALKKEGIRRVGRRPDQQLQGEGKIIDRRPERRPPRERRFEKPLEEKGEGGEFSVDRPIIDRPIRGRGGLGRGRGGRGRGMGRGDGFDSRGKREFDRHSGSDRSSFSHYSGLKHEDKRGGSGSHNWGTVKDELTESPKYIQKQISYNYSDLDQSNVTEETPEGEEHHPVADTENKENEVEEVKEEGPKEMTLDEWKAIQNKDRAKVEFNIRKPNEGADGQWKKGFVLHKSKSEEAHAEDSVMDHHFRKPANDITSQLEINFGDLGRPGRGGRGGRGGRGRGGRPNRGSRTDKSSASAPDVDDPEAFPALA
modifications: full-length
B7: P26196 (protein, UniProt P26196 1-483, looked up)
chain: MSTARTENPVIMGLSSQNGQLRGPVKPTGGPGGGGTQTQQQMNQLKNTNTINNGTQQQAQSMTTTIKPGDDWKKTLKLPPKDLRIKTSDVTSTKGNEFEDYCLKRELLMGIFEMGWEKPSPIQEESIPIALSGRDILARAKNGTGKSGAYLIPLLERLDLKKDNIQAMVIVPTRELALQVSQICIQVSKHMGGAKVMATTGGTNLRDDIMRLDDTVHVVIATPGRILDLIKKGVAKVDHVQMIVLDEADKLLSQDFVQIMEDIILTLPKNRQILLYSATFPLSVQKFMNSHLQKPYEINLMEELTLKGVTQYYAYVTERQKVHCLNTLFSRLQINQSIIFCNSSQRVELLAKKISQLGYSCFYIHAKMRQEHRNRVFHDFRNGLCRNLVCTDLFTRGIDIQAVNVVINFDFPKLAETYLHRIGRSGRFGHLGLAINLITYDDRFNLKSIEEQLGTEIKPIPSNIDKSLYVAEYHSEPVEDEKP
modifications: full-length
B8: P55209 (protein, UniProt P55209 1-391, looked up)
chain: MADIDNKEQSELDQDLDDVEEVEEEETGEETKLKARQLTVQMMQNPQILAALQERLDGLVETPTGYIESLPRVVKRRVNALKNLQVKCAQIEAKFYEEVHDLERKYAVLYQPLFDKRFEIINAIYEPTEEECEWKPDEEDEISEELKEKAKIEDEKKDEEKEDPKGIPEFWLTVFKNVDLLSDMVQEHDEPILKHLKDIKVKFSDAGQPMSFVLEFHFEPNEYFTNEVLTKTYRMRSEPDDSDPFSFDGPEIMGCTGCQIDWKKGKNVTLKTIKKKQKHKGRGTVRTVTKTVSNDSFFNFFAPPEVPESGDLDDDAEAILAADFEIGHFLRERIIPRSVLYFTGEAIEDDDDDYDEEGEEADEEGEEEGDEENDPDYDPKKDQNPAECKQQ
modifications: full-length
B9: Q9UN86 (protein, UniProt Q9UN86 1-482, looked up)
chain: MVMEKPSPLLVGREFVRQYYTLLNKAPEYLHRFYGRNSSYVHGGVDASGKPQEAVYGQNDIHHKVLSLNFSECHTKIRHVDAHATLSDGVVVQVMGLLSNSGQPERKFMQTFVLAPEGSVPNKFYVHNDMFRYEDEVFGDSEPELDEESEDEVEEEQEERQPSPEPVQENANSGYYEAHPVTNGIEEPLEESSHEPEPEPESETKTEELKPQVEEKNLEELEEKSTTPPPAEPVSLPQEPPKAFSWASVTSKNLPPSGTVSSSGIPPHVKAPVSQPRVEAKPEVQSQPPRVREQRPRERPGFPPRGPRPGRGDMEQNDSDNRRIIRYPDSHQLFVGNLPHDIDENELKEFFMSFGNVVELRINTKGVGGKLPNFGFVVFDDSEPVQRILIAKPIMFRGEVRLNVEEKKTRAARERETRGGGDDRRDIRRNDRGPGGPRGIVGGGMMRDRDGRGPPPRGGMAQKLGSGRGTGQMEGRFTGQRR
modifications: full-length

System: proteins that co-immunoprecipitated with DUX4-CTD constructs expressed in MB135 myoblasts
Experiment: LC-MS of proteins co-immunoprecipitated with DUX4-CTD (Table 1) and western validation
Assay type: binding, human
Design: key to 4. mL1dL2 + Dox + IFNG / 4. + IFNG mix / 4. longCTD + Dox + IFNG / 3. + IFNg + Dox longCTD / 3. + Dox longCTD / 3. + IFNG longCTD: peptide-spectrum matches (PSMs) per protein
Details: for 4. longCTD + Dox + IFNG: LC-MS counts of the listed protein co-immunoprecipitated with DUX4-CTD bait longCTD, experiment 4, Dox + IFNG; for 3. + Dox longCTD / 3. + IFNg + Dox longCTD: bait longCTD; for 3. + Dox longCTD: experiment 3, Dox only; for 3. + IFNg + Dox longCTD: experiment 3, IFNg + Dox; for SUM of PSMS: sum over all samples
How it was run: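 FLAG-tagged DUX4-CTD expressed in doxycycline-induced MB135 myoblasts, some also IFNG-treated; nuclear lysates in pH 7.4 NP-40 IP buffer were pre-cleared, then anti-FLAG immunoprecipitated 3 h at 4 °C. For LC-MS, FLAG-peptide elution, in-gel trypsin digest, Orbitrap analysis; proteins with ≥2 PSMs in both experiments categorised and ranked by total PSMs.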

Molecule	4. longCTD + Dox + IFNG	3. + Dox longCTD	3. + IFNg + Dox longCTD	SUM of PSMS
B1	4	3	3	11
B2	2	–	1	12
B3	1	1	4	6
B4	2	–	1	5
B5	–	1	8	10
B6	1	2	3	6
B7	1	2	3	6
B8	3	–	5	10
B9	1	1	3	6
